The values below come from doi:10.1101/2025.06.28.661730.

The assay addresses complement receptor 2 (CR2, CD21) on human follicular dendritic cells (human (endogenous in tonsil FDCs)) (UniProt P20023).

Chain of complement receptor 2 (CR2, CD21) on human follicular dendritic cells (human (endogenous in tonsil FDCs)) (P20023 21-1033): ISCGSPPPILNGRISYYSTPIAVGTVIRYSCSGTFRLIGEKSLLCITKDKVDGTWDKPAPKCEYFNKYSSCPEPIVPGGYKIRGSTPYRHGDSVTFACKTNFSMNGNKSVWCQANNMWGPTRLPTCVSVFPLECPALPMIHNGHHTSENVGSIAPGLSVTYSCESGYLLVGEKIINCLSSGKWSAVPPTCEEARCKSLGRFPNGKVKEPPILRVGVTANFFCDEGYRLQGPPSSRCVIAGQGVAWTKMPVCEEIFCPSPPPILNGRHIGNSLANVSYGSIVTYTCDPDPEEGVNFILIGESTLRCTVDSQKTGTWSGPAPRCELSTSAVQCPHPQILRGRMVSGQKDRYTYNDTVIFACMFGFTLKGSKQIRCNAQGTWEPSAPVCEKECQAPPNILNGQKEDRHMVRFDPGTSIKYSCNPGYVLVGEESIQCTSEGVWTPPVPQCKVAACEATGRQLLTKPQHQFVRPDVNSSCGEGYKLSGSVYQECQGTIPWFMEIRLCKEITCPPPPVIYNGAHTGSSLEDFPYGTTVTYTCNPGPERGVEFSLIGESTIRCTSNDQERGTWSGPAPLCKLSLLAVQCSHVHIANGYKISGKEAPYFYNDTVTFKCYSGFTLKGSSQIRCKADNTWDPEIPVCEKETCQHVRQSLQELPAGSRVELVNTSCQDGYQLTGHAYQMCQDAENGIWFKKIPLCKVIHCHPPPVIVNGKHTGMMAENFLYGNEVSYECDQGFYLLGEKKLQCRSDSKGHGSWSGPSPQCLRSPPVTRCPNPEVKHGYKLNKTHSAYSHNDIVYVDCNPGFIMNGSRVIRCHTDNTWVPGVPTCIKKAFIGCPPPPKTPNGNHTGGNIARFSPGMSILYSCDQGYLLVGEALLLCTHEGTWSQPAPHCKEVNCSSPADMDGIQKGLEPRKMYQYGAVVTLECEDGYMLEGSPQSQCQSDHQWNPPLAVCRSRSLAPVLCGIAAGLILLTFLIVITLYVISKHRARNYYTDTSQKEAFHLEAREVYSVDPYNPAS

As to “ConM SOSIP.v7 Env trimer fused to human complement fragment C3d (from UniProt P01024 1002-1303)”, the Ca2+ flux of PGT121-expressing Ramos B cells, AUC at 0.01 µg/ml Env-equivalent (tested at 10, 1, 0.1, 0.01 and 0.001 µg/ml); ConM Env alone gave AUC 5 came out at 442 AUC.
